Reference: article PMC9352680, “A comprehensive thermodynamic model for RNA binding by the Saccharomyces cerevisiae Pumilio protein PUF4”

T1: PUF4 RNA-binding domain (Saccharomyces cerevisiae, UniProt P25339 537-888)
T1 sequence: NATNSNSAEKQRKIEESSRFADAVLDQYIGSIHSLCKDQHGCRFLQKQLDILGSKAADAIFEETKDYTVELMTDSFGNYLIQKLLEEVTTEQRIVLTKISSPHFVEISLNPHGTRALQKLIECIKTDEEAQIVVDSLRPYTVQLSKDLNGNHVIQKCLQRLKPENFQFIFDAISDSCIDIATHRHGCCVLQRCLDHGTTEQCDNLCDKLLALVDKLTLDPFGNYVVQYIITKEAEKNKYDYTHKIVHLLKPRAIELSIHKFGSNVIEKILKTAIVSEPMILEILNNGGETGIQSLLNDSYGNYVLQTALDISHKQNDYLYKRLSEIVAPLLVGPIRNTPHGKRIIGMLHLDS


Target: T1, PUF4 RNA-binding domain
Test: Mg; RNA-MaP; 20 mM Na-HEPES pH 7.4, 30 mM KOAc, 0.75 mM MgCl2, 0.1% Tween-20, 5% glycerol, 0.1 mg/mL BSA, 2 mM DTT; 25 C; 0.0125-409.6 nM protein
Details: tags: N-His6-TEV cleaved; C-SNAP kept, Cy3B-labelled; label: tethered on chip by stalled RNA polymerase

Binder | Kd
UCUCUUUUACACUAUUAGUUCUCUU (ssRNA) [Id_ii_S1_P4E.4_K4.3_C4.2_[C-2T]_H4.3_A4.1_F4.1_T4.2] | 1370 nM
UCUCUUAGACACUAUUAAUUCUCUU (ssRNA) [Id_ii_S1_P4E.4_K4.3_C4.2_[C-2A]_[T-1G]_H4.3_A4.1_F4.1_T4.2_[G10A]] | > 2300 nM
UCUCUUCUUAUAUAUUAUAUCUCUU (ssRNA) [Id_ii_S1_P4E.3_K4.2_C4.2_H4.2_A4.1_F4.1_T4.2_[G10T]_[T11A]] | 27.7 nM
UCUCUUCUUAUAUAUUAAUUCUCUU (ssRNA) [Id_ii_S1_P4E.3_K4.2_C4.2_H4.2_A4.1_F4.1_T4.2_[G10A]] | 18.9 nM
UCUCUUUGACACUAUUACAUCUCUU (ssRNA) [Id_ii_S1_P4E.4_K4.3_C4.2_[C-2T]_[T-1G]_H4.3_A4.1_F4.1_T4.2_[G10C]_[T11A]] | > 2300 nM
UCUCUUGCACACUAUUAGUUCUCUU (ssRNA) [Id_ii_S1_P4E.4_K4.3_C4.2_[C-2G]_[T-1C]_H4.3_A4.1_F4.1_T4.2] | 347 nM
UCUCUUUGACACUAUUAUAUCUCUU (ssRNA) [Id_ii_S1_P4E.4_K4.3_C4.2_[C-2T]_[T-1G]_H4.3_A4.1_F4.1_T4.2_[G10T]_[T11A]] | 2180 nM
UCUCUUUUACACUAUUACCUCUCUU (ssRNA) [Id_ii_S1_P4E.4_K4.3_C4.2_[C-2T]_H4.3_A4.1_F4.1_T4.2_[G10C]_[T11C]] | 1320 nM
UCUCUUUGACACUAUUAACUCUCUU (ssRNA) [Id_ii_S1_P4E.4_K4.3_C4.2_[C-2T]_[T-1G]_H4.3_A4.1_F4.1_T4.2_[G10A]_[T11C]] | > 2300 nM
UCUCUUGUACACUAUUAACUCUCUU (ssRNA) [Id_ii_S1_P4E.4_K4.3_C4.2_[C-2G]_H4.3_A4.1_F4.1_T4.2_[G10A]_[T11C]] | 0.968 nM
UCUCUUUGACACUAUUAUCUCUCUU (ssRNA) [Id_ii_S1_P4E.4_K4.3_C4.2_[C-2T]_[T-1G]_H4.3_A4.1_F4.1_T4.2_[G10T]_[T11C]] | > 2300 nM
UCUCUUUGACACUAUUAGCUCUCUU (ssRNA) [Id_ii_S1_P4E.4_K4.3_C4.2_[C-2T]_[T-1G]_H4.3_A4.1_F4.1_T4.2_[T11C]] | > 2300 nM
UCUCUUUCACACUAUUACUUCUCUU (ssRNA) [Id_ii_S1_P4E.4_K4.3_C4.2_[C-2T]_[T-1C]_H4.3_A4.1_F4.1_T4.2_[G10C]] | > 2300 nM
UCUCUUUCACACUAUUACCUCUCUU (ssRNA) [Id_ii_S1_P4E.4_K4.3_C4.2_[C-2T]_[T-1C]_H4.3_A4.1_F4.1_T4.2_[G10C]_[T11C]] | > 2300 nM
UCUCUUUUACACUAUUACGUCUCUU (ssRNA) [Id_ii_S1_P4E.4_K4.3_C4.2_[C-2T]_H4.3_A4.1_F4.1_T4.2_[G10C]_[T11G]] | 1680 nM
UCUCUUGUACACUAUUAGUUCUCUU (ssRNA) [Id_ii_S1_P4E.4_K4.3_C4.2_[C-2G]_H4.3_A4.1_F4.1_T4.2] | 1.27 nM

Binder | Kd
UCUCUUUGUAUAUCUCUCUU (ssRNA) [Ia_S1_P3E.1_K3.1_C3.1_H3.1_A3.1_F3.1_[A8C]_T3.1] | 14.8 nM
UCUCUUGUACACUAUUAUAUCUCUU (ssRNA) [Id_ii_S1_P4E.4_K4.3_C4.2_[C-2G]_H4.3_A4.1_F4.1_T4.2_[G10T]_[T11A]] | 1.07 nM
UCUCUUUGUGUAAUAUCUCUU (ssRNA) [Ib_S1_P4E.1_K4.1_C4.1_H4.1_[A4G]_A4.1_[T7A]_F4.1_T4.1] | 10.4 nM
UCUCUUGCACACUAUUAUCUCUCUU (ssRNA) [Id_ii_S1_P4E.4_K4.3_C4.2_[C-2G]_[T-1C]_H4.3_A4.1_F4.1_T4.2_[G10T]_[T11C]] | 91.3 nM
UCUCUUUAACACUAUUAGUUCUCUU (ssRNA) [Id_ii_S1_P4E.4_K4.3_C4.2_[C-2T]_[T-1A]_H4.3_A4.1_F4.1_T4.2] | > 2300 nM
UCUCUUGCACACUAUUAAUUCUCUU (ssRNA) [Id_ii_S1_P4E.4_K4.3_C4.2_[C-2G]_[T-1C]_H4.3_A4.1_F4.1_T4.2_[G10A]] | 93.8 nM
UCUCUUGCACACUAUUAUAUCUCUU (ssRNA) [Id_ii_S1_P4E.4_K4.3_C4.2_[C-2G]_[T-1C]_H4.3_A4.1_F4.1_T4.2_[G10T]_[T11A]] | 351 nM
UCUCUUAGACACUAUUACAUCUCUU (ssRNA) [Id_ii_S1_P4E.4_K4.3_C4.2_[C-2A]_[T-1G]_H4.3_A4.1_F4.1_T4.2_[G10C]_[T11A]] | > 2300 nM
UCUCUUUAACACUAUUAUUUCUCUU (ssRNA) [Id_ii_S1_P4E.4_K4.3_C4.2_[C-2T]_[T-1A]_H4.3_A4.1_F4.1_T4.2_[G10T]] | > 2300 nM
UCUCUUUUACACUAUUAACUCUCUU (ssRNA) [Id_ii_S1_P4E.4_K4.3_C4.2_[C-2T]_H4.3_A4.1_F4.1_T4.2_[G10A]_[T11C]] | 977 nM
UCUCUUGUACACUAUUAGCUCUCUU (ssRNA) [Id_ii_S1_P4E.4_K4.3_C4.2_[C-2G]_H4.3_A4.1_F4.1_T4.2_[T11C]] | 0.962 nM
UCUCUUUCACACUAUUAUCUCUCUU (ssRNA) [Id_ii_S1_P4E.4_K4.3_C4.2_[C-2T]_[T-1C]_H4.3_A4.1_F4.1_T4.2_[G10T]_[T11C]] | > 2300 nM
UCUCUUAGACACUAUUAACUCUCUU (ssRNA) [Id_ii_S1_P4E.4_K4.3_C4.2_[C-2A]_[T-1G]_H4.3_A4.1_F4.1_T4.2_[G10A]_[T11C]] | > 2300 nM
UCUCUUGUACACUAUUAAUUCUCUU (ssRNA) [Id_ii_S1_P4E.4_K4.3_C4.2_[C-2G]_H4.3_A4.1_F4.1_T4.2_[G10A]] | 1.04 nM
UCUCUUGUACACUAUUACCUCUCUU (ssRNA) [Id_ii_S1_P4E.4_K4.3_C4.2_[C-2G]_H4.3_A4.1_F4.1_T4.2_[G10C]_[T11C]] | 0.615 nM
UCUCUUUGUAGCUUAUCUCUU (ssRNA) [Ic_S1_P4E.1_K4.1_C4.1_H4.1_A4.1_[T5G]_[A6C]_F4.1_T4.1] | 28.6 nM
